Laboratory results reported in publication PMC4960888 (2016).
Ends that are not written are not given here.

Biological target: Aβ(1-42) fibrils 1-42 (Homo sapiens, UniProt P05067)
Assay: SPR

Sequence of Aβ(1-42) fibrils 1-42 (P05067 1-42): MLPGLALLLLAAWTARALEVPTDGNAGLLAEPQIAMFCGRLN

Row | Binder | Kd
1 | LPFFD (also: conjugated to AGuIX nanoparticle via PEG, labelled with Cy5.5, attachment sites not given here) [AGuIX@PEG@LPFFD@Cy5.5] | 261 µM
2 | LPFFD [LPFFD peptide] | 317 µM
